In this data set the test system is ATP. In words: switch fluorescence ratio, 500 uM ATP over buffer (Cy3 cluster intensity, sum of 5 cycles each) (fold (ratio)); higher = stronger signal-on switching upon ATP binding; sequences stand for … in TCGTCGGCAGCGTCAGATGTGTATAAGAGACAGTTTTTTTTTTTTTTTTTTTTTTTTT…TC. Particulars: aptamer strand: ATP DNA aptamer (quencher-CACCTGGGGGAGTATTGCGGAGGAAGG + anchor), 100 nM annealed; ATP concentration: 500 uM. Summed up:
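Between each of five buffer/ATP cycles, the flow-cell was stripped with NaOH and re-annealed. Each cycle imaged Cy3-labelled switching-strand clusters, annealed to 100 nM quencher-labelled ATP aptamer on a modified Illumina MiSeq flow-cell, first in selection buffer and then after 15 min with 500 uM ATP at 22 °C. The fluorescence ratio is summed target-cycle over summed buffer-cycle Cy3 intensity per cluster, averaged per switch-domain sequence, with clusters outside 100-1000 RFU excluded.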

± gives the standard deviation of the averaged measurements.

This note sets out measurements from the supplement of paper PMC10126150.
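Also: ATP exposure 15 min at 22 °C before imaging.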

Regarding GAGGGGTTTA, the switch fluorescence ratio was determined as 1 ± 0.027. Next, GAGGGTAAGA: 1.02 ± 0.062; GAGGGTCTCT: 0.98005 ± 0.00068. The figure for GAGGGTTCGA is 0.987 ± 0.033. Next, GAGGGTTTTA: 1 ± 0.016; GAGGTACGCG: 1.026 ± 0.0062. Turning to GAGGTAGGTC, the switch fluorescence ratio stood at 0.9945 ± 0.0019. Turning to GAGGTATTGG, the switch fluorescence ratio was determined as 1.01 ± 0.022. The figure for GAGGTCAGTG is 0.974 ± 0.019; for GAGGTGCTGA it is 1 ± 0.061; for GAGGTGTGAC it is 1.01 ± 0.039. The figure for GAGGTTCAGT is 0.989 ± 0.011. Turning to GAGGTTCGCT, the switch fluorescence ratio was determined as 0.979 ± 0.069. As to GAGGTTGCGG, the switch fluorescence ratio turned out to be 0.96 ± 0.036. Next, GAGGTTGGGA: 1.01 ± 0.012. Turning to GAGGTTTATA, the switch fluorescence ratio came out at 0.984 ± 0.043.

Regarding GAGGTTTGGG, the switch fluorescence ratio worked out at 0.982 ± 0.035. Regarding GAGGTTTTTT, the switch fluorescence ratio turned out to be 0.987 ± 0.021. Consider GAGTAACCAG, for which the switch fluorescence ratio was determined as 0.979 ± 0.036.

In the case of GAGTAAGATT, the switch fluorescence ratio came out at 1.02 ± 0.025.

Consider GAGTAATGGG, for which the switch fluorescence ratio worked out at 1.003 ± 0.0098. Next, GAGTACCGAA: 0.969 ± 0.031; GAGTACTAGA: 1.02 ± 0.018. For the sequence GAGTAGGGGG, the switch fluorescence ratio worked out at 0.993 ± 0.033. With GAGTATAATA, the switch fluorescence ratio was 0.997 ± 0.025. Next, GAGTATACGT: 1.022 ± 0.0048; GAGTCAGGGT: 1.02 ± 0.011; GAGTCCGTAC: 1.31 ± 0.017.

Consider GAGTCGAGAG, for which the switch fluorescence ratio is 0.99 ± 0.033. In the case of GAGTCTGTCC, the switch fluorescence ratio stood at 1.019 ± 0.0035. For GAGTGACTCG, the switch fluorescence ratio was found to be 1.01 ± 0.014.

In the case of GAGTGAGGTT, the switch fluorescence ratio stood at 0.955 ± 0.046. The figure for GAGTGATGTT is 0.979 ± 0.012. The figure for GAGTGCATTG is 1.01 ± 0.015. Turning to GAGTGCCGGT, the switch fluorescence ratio was 1.02 ± 0.023. The figure for GAGTGCGTCG is 1.01 ± 0.16. Next, GAGTGCTAAA: 1.01 ± 0.0053; GAGTGCTTGG: 0.973 ± 0.022; GAGTGGGCGG: 0.996 ± 0.071. As for GAGTGGTTAG, the switch fluorescence ratio was determined as 0.9884 ± 0.0017. The figure for GAGTGTGAAA is 0.978 ± 0.035; for GAGTGTGGGC it is 1.01 ± 0.099. Take GAGTGTTAGG: the switch fluorescence ratio was determined as 0.996 ± 0.013. Next, GAGTGTTGGT: 1 ± 0.022; GAGTTAAAGT: 1.01 ± 0.014. For GAGTTCACGT, the switch fluorescence ratio was 1.04 ± 0.013. Next, GAGTTCAGGT: 1.01 ± 0.019; GAGTTCTTG: 0.986 ± 0.023. The figure for GAGTTGAATT is 0.993 ± 0.046; for GAGTTGCTTA it is 1.006 ± 0.01; for GAGTTGGGGA it is 1 ± 0.036. In the case of GAGTTGTCGA, the switch fluorescence ratio stood at 0.994 ± 0.022.

With GAGTTGTTGG, the switch fluorescence ratio was 0.968 ± 0.024. The figure for GAGTTTAGAT is 0.994 ± 0.018.

For the sequence GAGTTTAGCG, the switch fluorescence ratio was 0.982 ± 0.025. For the sequence GAGTTTCGTG, the switch fluorescence ratio was found to be 0.965 ± 0.01. The figure for GATAAAAGTT is 1.02 ± 0.066; for GATAAAGATA it is 1.02 ± 0.043. The figure for GATAAAGGGT is 1.005 ± 0.0052; for GATAAAGTTA it is 0.992 ± 0.013.

In the case of GATAAATGAT, the switch fluorescence ratio was 1 ± 0.02. On to GATAACATAC, for which the switch fluorescence ratio is 1.368 ± 0.0047. As to GATAACGAAG, the switch fluorescence ratio came out at 1.008 ± 0.006. As to GATAAGGAAC, the switch fluorescence ratio worked out at 0.9788 ± 0.0072. The figure for GATAAGTTGG is 0.935 ± 0.09. Regarding GATAATAAGT, the switch fluorescence ratio stood at 1.01 ± 0.016.
